T1: human sodium-dependent phosphate transporter 2B (NaPi2b) (human, UniProt O95436 1-690)
T1 construct: UniProt ID is given as 095436 [sic]; also called hNaPi2b; Hu NaPi2b
T1 sequence: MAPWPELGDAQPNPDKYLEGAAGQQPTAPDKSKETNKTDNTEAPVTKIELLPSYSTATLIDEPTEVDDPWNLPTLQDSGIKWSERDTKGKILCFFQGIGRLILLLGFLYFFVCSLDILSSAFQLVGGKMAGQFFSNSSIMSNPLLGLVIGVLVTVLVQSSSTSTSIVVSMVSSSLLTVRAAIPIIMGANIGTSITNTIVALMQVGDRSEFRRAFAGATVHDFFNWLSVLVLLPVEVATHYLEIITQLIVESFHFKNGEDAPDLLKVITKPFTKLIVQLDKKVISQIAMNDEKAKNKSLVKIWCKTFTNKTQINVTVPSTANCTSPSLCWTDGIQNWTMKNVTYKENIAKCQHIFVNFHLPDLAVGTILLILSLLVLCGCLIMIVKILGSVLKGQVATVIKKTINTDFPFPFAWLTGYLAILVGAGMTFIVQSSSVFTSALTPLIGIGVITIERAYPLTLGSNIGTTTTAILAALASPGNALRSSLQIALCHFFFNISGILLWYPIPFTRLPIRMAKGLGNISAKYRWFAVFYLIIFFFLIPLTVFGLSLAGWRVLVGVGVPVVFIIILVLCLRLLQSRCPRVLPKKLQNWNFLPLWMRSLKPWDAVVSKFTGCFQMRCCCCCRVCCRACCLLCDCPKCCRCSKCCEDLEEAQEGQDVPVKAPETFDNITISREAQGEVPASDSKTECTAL

B1: v29452 (H1L3) (antibody, human IgG1, kappa, V domains shown)
VH: QVQLVQSGAEVKKPGASVKVSCKASGFTFTSYNVHWVRQAPGQGLEWMGAISPGNGDLSYAQKFQGRVTMTRDTSTSTVYMELSSLRSEDTAVYYCARGRTGMGAVDYWGQGTLVTVSS
VL: DVQMTQSPSSLSASVGDRVTITCRASQDVYSYLNWYQQKPGKAVKLLIYYTSRLQSGVPSRFSGSGSGTDYTLTISSLQPEDIATYYCQQYNIFPWTFGQGTKLEIKR
notes: Humanized IgG1/kappa
B2: v36124 (monovalent format of humanized antibody variant 29456) (antibody, V domains shown)
VH: B1 VH
VL: DVQMTQSPSSLSASVGDRVTITCRASQDVYSYLNWYQQKPGKAVKLLIYYTSRLQSGVPSRFSGSGSGTDYTLTISSLQPEDFATYYCQQYNIFPWTFGQGTKLEIK
notes: Monovalent format; rest of the construct not described; also called VH1/VL2
B3: v23855 (parental mouse-human chimeric anti-NaPi2b antibody) (antibody, human IgG1, kappa, V domains shown)
VH: QAYLQQSGAELVRPGASVKMSCKASGFTFTSYNVHWVKQTPRQGLEWIAAISPGNGDLSYNQRFKDKATLTVDRSSSTAYMQLSGLTSEDSAVYFCARGRTGMGAVDYWGQGTSVTVSS
VL: DVQMTQTASSLSASLGDRVTISCRASQDVYSYLNWYQQKPHGTVKLLIYYTSRLQSGVPSRFTGSGSGTDYSLTISNLEPEDIATYYCQQYNIFPWTFGGGTKLEIKR
notes: IgG1/kappa full-size antibody; also called parental chimeric
B4: v29814 (monovalent format of parental chimeric variant 23855) (antibody, V domains shown)
VH: B3 VH
VL: DVQMTQTASSLSASLGDRVTISCRASQDVYSYLNWYQQKPHGTVKLLIYYTSRLQSGVPSRFTGSGSGTDYSLTISNLEPEDIATYYCQQYNIFPWTFGGGTKLEIK
notes: Monovalent format; VH and VL are those of v23855; also called parental chimeric monovalent antibody variant
B5: v18992 (MX35)-DL2 (antibody, human IgG1, kappa)
heavy 1: GQVQLVQSGAEVVKPGASVKMSCKASGYTFTGYNIHWVKQAPGQGLEWIGAIYPGNGDTSYKQKFRGRATLTADTSTSTVYMELSSLRSEDSAVYYCARGETARATFAYWGQGTLVTVSSASTKGPSVFPLAPSSKSTSGGTAALGCLVKDYFPEPVTVSWNSGALTSGVHTFPAVLQSSGLYSLSSVVTVPSSSLGTQTYICNVNHKPSNTKVDKKVEPKSCDKTHTCPPCPAPELLGGPSVFLFPPKPKDTLMISRTPEVTCVVVDVSHEDPEVKFNWYVDGVEVHNAKTKPREEQYNSTYRVVSVLTVLHQDWLNGKEYKCKVSNKALPAPIEKTISKAKGQPREPQVYVYPPSRDELTKNQVSLTCLVKGFYPSDIAVEWESNGQPENNYKTTPPVLDSDGSFALVSKLTVDKSRWQQGNVFSCSVMHEALHNHYTQKSLSLSPG
heavy 2: not shown
light: GDIQMTQSPSSLSASVGDRVTITCSASQDIGNFLNWYQQKPGKTVKVLIYYTSSLYSGVPSRFSGSGSGTDYTLTISSLQPEDFATYYCQQYSKLPLTFGQGTKLELKRTVAAPSVFIFPPSDEQLKSGTASVVCLLNNFYPREAKVQWKVDNALQSGNSQESVTEQDSKDSTYSLSSTLTLSKADYEKHKVYACEVTHQGLSSPVTKSFNRGEC
modifications: as above; maleimide functionalized auristatin drug linker (DL2); sites and DAR not stated
notes: also called MX35-DL2 ADC

What was measured:
[1] = biological target: T2, KLH (Sigma-Aldrich, H8283); assay: non-specific ELISA, KLH coated, antibody 100 nM
T2 construct: Coating of the non-specific ELISA

[2] = biological target: T1, human sodium-dependent phosphate …; assay: flow cytometry, IGROV-1 cells (endogenous NaPi2b); design: unit not given here
[3] = biological target: T1, human sodium-dependent phosphate …; assay: flow cytometry, IGROV-1 cells (endogenous NaPi2b); apparent Kd
[4] = biological target: T1, human sodium-dependent phosphate …; assay: KinExA, monovalent antibody, IGROV-1 cells (endogenous NaPi2b) as titrant, N-curve analysis
[5] = biological target: T1, human sodium-dependent phosphate …; assay: flow cytometry on IGROV-1 cells (endogenous NaPi2b), 24 h at 4 C, anti-human IgG Fc AF647

| Binder | NS-ELISA binding score (signal over buffer well) [1] | Bmax [2] | Kd [3] [pM] | Kd [4] [pM] | EC50 (read off the curve) [5] [pM] |
| --- | --- | --- | --- | --- | --- |
| B1 | 1.34 | 47800 | 1600 | – | – |
| B2 | – | – | – | 283 | – |
| B3 | 2.38 | 43700 | 840 | – | ~800 |
| B4 | – | – | – | 150 | – |
| B5 | – | 41200 | 1220 | – | 1000 to 1700 |
